Key:
[1] = molecular target: Ovr110-HA on stably transfected mouse LMTK cells (human) (UniProt Q7Z7D3); experiment: FACS on Ovr110-HA transfected mouse LMTK cells, secondary antibody alone
[2] = molecular target: Ovr110-HA on stably transfected mouse LMTK cells (human) (UniProt Q7Z7D3); experiment: FACS on Ovr110-HA transfected mouse LMTK cells, secondary antibody alone, gate I

- Mean of Fluorescence [1]: 0.48
- Percentage of cells [2]: 0.6
Substance: Donkey Anti-Mouse Ig-PE (antibody)
